The record followed here is paper doi:10.1101/2020.04.16.045674.

In test [1] the target is NaChBac (Bacillus halodurans). As to the kind of experiment: cryo-EM structure.
Test [2] has as its target NaChBac (Bacillus halodurans). As to the kind of experiment: cryo-EM structure. This is another data set of the same source.

Broadly, the stoichiometry N is the number of molecules, sites or subunits per partner or assembly.

Read-outs that look alike come from different tables or passages of the source.

Regarding NaChBac (natural protein), the stoichiometry N in test [1] and in test [2] was 4 each time.
